From paper PMC4912689, “The Extracellular Surface of the GLP-1 Receptor Is a Molecular Trigger for Biased Agonism” (Cell, 2016)

B1: unnamed (parent)
chain 1: HSQGTFTSDYSKYLDSRRAQDFVQWLMNTKRNRNNIA
chain 2: RPQGATVSLWETVQKWREYRRQCQRSLTEDPPPATDLFCNRTFDEYACWPDGEPGSFVNVSCPWYLPWASSVPQGHVYRFCTAEGLWLQKDNSSLPWRDLSECEESKRGERSSPEEQLLFLYIIYTVGYALSFSALVIASAILLGFRHLHCTRNYIHLNLFASFILRALSVFIKDAALKWMYSTAAQQHQWDGLLSYQDSLSCRLVFLLMQYCVAANYYWLLVEGVYLYTLLAFSVLSEQWIFRLYVSIGWGVPLLFVVPWGIVKYLYEDEGCWTRNSNMNYWLIIRLPILFAIGVNFLIFVRVICIVVSKLKANLMCKTDIKCRLAKSTLTLIPLLGTHEVIFAFVMDEHARGTLRFIKLFTELSFTSFQGLMVAILYCFVNNEVQLEFRKSWERWRLEHLHIQRDSSMKPLKCPTSSLSSGATAGSSMYTATCQASCS

Variants of: B1
Assay: radioligand inhibition binding (competition with 125I-exendin-4(9-39))
Conditions: read off a plot

Variant | log10 ratio
chain 2 H189A | 0.2 ΔpKi
chain 2 H351A | -0.4 ΔpKi
chain 2 I263A | -0.15 ΔpKi
chain 2 I359A | 0.05 ΔpKi
chain 2 K179A | -0.85 ΔpKi
chain 2 K265A | -1.4 ΔpKi
chain 2 K360A | -0.9 ΔpKi
chain 2 L178A | -0.9 ΔpKi
chain 2 L194A | -0.15 ΔpKi
chain 2 L195A | -0.5 ΔpKi
chain 2 L267A | -0.4 ΔpKi
chain 2 L284A | -0.85 ΔpKi
chain 2 L356A | -0.8 ΔpKi
chain 2 L361A | -0.85 ΔpKi
chain 2 M181A | -1.5 ΔpKi
chain 2 M280A | -0.8 ΔpKi
chain 2 N277A | -1.4 ΔpKi
chain 2 N279A | -1.4 ΔpKi
chain 2 N281A | -0.5 ΔpKi
chain 2 Q187A | -0.65 ΔpKi
chain 2 Q188A | -0.05 ΔpKi
chain 2 Q190A | 0.1 ΔpKi

Variant | log10 ratio
chain 2 Q198A | 0.15 ΔpKi
chain 2 R276A | -1.9 ΔpKi
chain 2 R353A | -0.35 ΔpKi
chain 2 R357A | -0.55 ΔpKi
chain 2 S183A | 0.1 ΔpKi
chain 2 S196A | 0.1 ΔpKi
chain 2 S200A | -0.35 ΔpKi
chain 2 S278A | -0.35 ΔpKi
chain 2 T184A | -0.05 ΔpKi
chain 2 T275A | 0.4 ΔpKi
chain 2 T355A | -0.55 ΔpKi
chain 2 T363A | -0.2 ΔpKi
chain 2 V264A | -0.25 ΔpKi
chain 2 W180A | -0.15 ΔpKi
chain 2 W191A | -0.15 ΔpKi
chain 2 W274A | -0.1 ΔpKi
chain 2 Y182A | -0.3 ΔpKi
chain 2 Y197A | -0.3 ΔpKi
chain 2 Y266A | 0.1 ΔpKi
chain 2 Y268A | -0.45 ΔpKi
chain 2 Y282A | -1.9 ΔpKi
